Measured values from patent US20260116951A1 (DUCENTIS BIOTHERAPEUTICS, published 2026).

How the values were obtained:
[1] = biological target: T1, Recombinant Human CD200R, His-tagged (Creative Biomart CD200R1-320H) (human, UniProt Q8TD46 27-266); assay: SPR
T1 construct: Bought; also called human CD200 receptor; not shown: His tag
T1 sequence (looked up): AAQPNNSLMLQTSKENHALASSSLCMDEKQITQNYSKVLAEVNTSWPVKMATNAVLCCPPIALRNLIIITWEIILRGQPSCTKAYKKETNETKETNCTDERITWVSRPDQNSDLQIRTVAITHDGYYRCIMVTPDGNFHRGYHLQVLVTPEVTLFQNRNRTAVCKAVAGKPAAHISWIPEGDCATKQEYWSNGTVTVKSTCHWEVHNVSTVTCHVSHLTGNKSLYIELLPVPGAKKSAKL
Description: (§1) Curves obtained were fitted to 1:1 Langmuir binding model by setting Rmax and RI as local parameters. Rate equations using standard parameters (e.g. ligand concentration, time) were used for iterative curve fitting. […] Means of 2 experiments carried out on the same day are shown with standard deviation. Residue numbering for CD200 proteins refers to the pre-protein, containing a signal peptide which is cleaved during insertion into the endoplasmic reticulum.

[2] = biological target: T1, Recombinant Human CD200R, His-tagged …; assay: SPR, CD200R flowed over immobilized CD200-Fc, 25 C, 1:1 fit
Experimental: (§2) For human CD200 constructs: anti-human Fc (GE Healthcare) was covalently immobilized on a BIAcore CM5 sensor chip (Cytiva, BR100530) by amine coupling using a Cytiva kit (BR100839) following the manufacturer's instructions, targeting immobilization of 8,000-11,000 RU. CD200-Fc proteins were diluted to 0.5 μg/mL to 4 μg/mL in running Buffer (1×HBS-EP+pH7.4 (Cytiva BR100669), HEPES Buffered Saline pH 7.4 containing 3 mM EDTA and 0.05% v/v Surfactant P20) and flowed for 25 to 100 seconds at 10 μL/min over the immobilized Anti-Human IgG Fc, with a stabilization time of 60 seconds. Between 35 and 250 RUs of CD200-Fc were captured, with higher RUs used for cynomolgus CD200R binding experiments. […] Analysis temperature was 25° C. This was followed by regeneration of the surface with 30-90 second pulse of 3M MgCl₂ flowed at […] flow rate followed by stabilization of the surface with 60 second flow of running buffer.
as §1

[3] = biological target: T2, Recombinant Cyno CD200R, His-tagged (Creative Biomart CD200R1-3483C) (cynomolgus monkey); assay: SPR, cyno CD200R1 flowed over immobilized CD200-Fc, 25 C, 1:1 fit
T2 construct: Bought; also called cynomolgus CD200R1; cynomolgus CD200R
Experimental: as §2, §1

[4] = biological target: T2, Recombinant Cyno CD200R, His-tagged …; assay: SPR (BIAcore T200), CD200-Fc captured on anti-human Fc, cyno CD200R flowed, 25 C, 1:1 fit
Experimental: The experiments were performed on a GE Healthcare BIAcore T200. Human, cynomolgus and mouse CD200R proteins were purchased from Creative Biomart (CD200R1-320H, CD200R1-3483C, CD200R1-3280M). All measurements were performed in duplicate.
For human CD200 constructs: anti-human Fc (GE Healthcare) was covalently immobilized on a BIAcore CM5 sensor chip (Cytiva, BR100530) by amine coupling using a Cytiva kit (BR100839) following the manufacturer's instructions, targeting immobilization of 8,000-11,000 RU. CD200-Fc proteins were diluted to 0.5 μg/mL to 4 μg/mL in running Buffer (1×HBS-EP+pH7.4 (Cytiva BR100669), HEPES Buffered Saline pH 7.4 containing 3 mM EDTA and 0.05% v/v Surfactant P20) and flowed for 25 to 100 seconds at 10 μL/min over the immobilized Anti-Human IgG Fc, with a stabilization time of 60 seconds. […]
For mouse CD200 constructs, muCD200R-Fc (Creative Biomart CD200R1-458M) diluted to 1 μg/mL in running buffer was flowed over the immobilized Anti-Human IgG Fc, with CD200 monomers serially diluted and flowed over captured CD200R. […] Data analysis: experimental sensorgrams were analyzed in BIAevaluation software (GE Healthcare). […] Closeness of fit was determined by algorithms provided by the manufacturer in the BIAevaluation software, and data accepted if the Chi² value was less than 10% of Rₘₐₓ, and the U value was less than or equal to 15.

[5] = biological target: T2, Recombinant Cyno CD200R, His-tagged …; assay: SPR, cyno CD200R1 flowed over immobilized CD200-Fc, 25 C, 1:1 fit, mean of 2 experiments with standard deviation
Experimental: as §2, §1

[6] = biological target: T1, Recombinant Human CD200R, His-tagged …; assay: SPR (BIAcore), DS-118 captured (0.5 ug/mL), HuCD200R1 flowed at 100 nM to 6.25 nM, 25 C, 1:1 Binding model, run 2
Experimental: as §2
For mouse CD200 constructs, muCD200R-Fc (Creative Biomart CD200R1-458M) diluted to 1 μg/mL in running buffer was flowed over the immobilized Anti-Human IgG Fc, with CD200 monomers serially diluted and flowed over captured CD200R. Other details were as above. Data analysis: experimental sensorgrams were analyzed in BIAevaluation software (GE Healthcare). The curves obtained were fitted to 1:1 Langmuir binding model by setting Rmax and RI as local parameters. Rate equations using standard parameters (e.g. ligand concentration, time) were used for iterative curve fitting. Closeness of fit was determined by algorithms provided by the manufacturer in the BIAevaluation software, and data accepted if the Chi² value was less than 10% of Rₘₐₓ, and the U value was less than or equal to 15.

[7] = biological target: T3, Cyno PBMCs; assay: Flow cytometry, % binding on cynomolgus PBMCs gated on live cells, 1 hour at 37 C, anti-human secondary antibody; the target protein on the cells is not named
T3 construct: No receptor was assigned; also called cynomolgus monkey PBMCs, gated on live cells
Experimental: PBMC cells were re-suspended with a density of 0.1 million cells per assay point, with 50 μL FACS buffer (1×PBS+2% FBS). Dilutions of huCD200-Fc in 50 μL were added, starting at 10 μg/mL with 3-fold dilutions up to 10 concentrations with FACS buffer, and incubated for 1-hour at 37° C. At the end of each time point, cells were collected and washed (addition of 200 μL FACS buffer and centrifugation at 1400 RPM). 10 μg/mL of anti-human secondary antibody (Abcam Ab98596) was added together with excess Fc block (Innovex Biosciences no. NB309), and incubated for 30 minutes at 4° C. Cells were washed post incubation and stained to check viability (1 μL dye per million cells per mL 1×PBS, ThermoFisher C34557A) for 20 minutes at 4° C. Cells were washed and fixed with Fixation buffer (100 μL per test, BD Sciences 554655) at 4° C. for 20 minutes. Post incubation, cells were washed and the pellet was re-suspended in FACS buffer (100 μL per test) for data acquisition on the flow cytometer.

B1: DS-118 (mutated human CD200-Fc fusion protein, K130Y, I131Y, IgG4 S228P Fc) (Fc fusion)
chain: QVQVVTQDEREQLYTPASLKCSLQNAQEALIVTWQKKKAVSPENMVTFSENHGVVIQPAYKDKINITQLGLQNSTITFWNITLEDEGCYMCLFNTFGFGYYSGTACLTVYVQPIVSLHYKFSEDHLNITCSATARPAPMVFWKVPRSGIENSTVTLSHPNGTTSVTSILHIKDPKNQVGKEVICQVLHLGTVTDFKQTVNKGPPCPPCPAPEFLGGPSVFLFPPKPKDTLMISRTPEVTCVVVDVSQEDPEVQFNWYVDGVEVHNAKTKPREEQFNSTYRVVSVLTVLHQDWLNGKEYKCKVSNKGLPSSIEKTISKAKGQPREPQVYTLPPSQEEMTKNQVSLTCLVKGFYPSDIAVEWESNGQPENNYKTTPPVLDSDGSFFLYSRLTVDKSRWQEGNVFSCSVMHEALHNHYTQKSLSLSLGK
notes: also called mutated CD200-Fc; mutant CD200-Fc
fold increase in affinity from wild type [1]: > 130 fold
T1/2 [2]: 37.9 min
T1/2 [3]: 18.2 s
t½ [4]: 18.2 s
Kd [5]: 206 nM
Kd [6]: 1.42 nM
koff [6]: 0.000329 s⁻¹
kon [6]: 232000 M⁻¹ s⁻¹
EC50 [7]: 1.96 µg/mL
